Consider 23 molecules from patent US20260207704A1, “STAPLED PEPTIDES AND METHODS THEREOF” (priority 2022, published 2026).

As a reminder, the IC50 is the concentration needed to halve the response being measured. A low value points to greater potency.

In this assay the target is beta-catenin (human). The assay can be described thus: fluorescence polarization.

*1 amine or outer side, *2 acyl side, *3 side chain or, on linkers, in order; H or OH if unused. Bridges are numbered along the chain shown (N, C = ends). Primed or numbered codes have the meaning given here. [ ]: non-standard residue; d: D form. The star is where a group is joined. PyrS2(6) = (S)-3-amino-1-((pent-4-en-1-yloxy)carbonyl)pyrrolidine-3-carboxylic acid, stapled with another olefin-containing amino acid residue through the olefin group, O=C(OCCCC=[*:3])N1CC[C@@](N[*:1])(C(=O)[*:2])C1; B5(4) = 2-amino-2-(pent-4-en-1-yl)hept-6-enoic acid, stapled through each of its two olefin groups with other olefin-containing amino acid residues, O=C(C(CCCC=[*:3])(CCCC=[*:4])N[*:1])[*:2]; PyrS2″ = (S)-3-amino-1-((pent-4-en-1-yloxy)carbonyl)pyrrolidine-3-carboxylic acid (olefin stapling residue), C=CCCCOC(=O)N1CC[C@@](N[*:1])(C(=O)[*:2])C1; PyrS2 = (S)-3-amino-1-((pent-4-en-1-yloxy)carbonyl)pyrrolidine-3-carboxylic acid, olefin staple residue, C=CCCCOC(=O)N1CC[C@@](N[*:1])(C(=O)[*:2])C1; PyrS2(3) = (S)-3-amino-1-((pent-4-en-1-yloxy)carbonyl)pyrrolidine-3-carboxylic acid, olefin residue, C=CCCCOC(=O)N1CC[C@@](N[*:1])(C(=O)[*:2])C1; TriAzLys(4) = (S)-2-amino-5-(1H-1,2,3-triazol-1-yl)pentanoic acid, staple through triazole 4-position, O=C([C@H](CCCn1cc([*:3])nn1)N[*:1])[*:2]; TriAzLys = (S)-2-amino-5-(1H-1,2,3-triazol-1-yl)pentanoic acid, stapled through triazole 4-position, O=C([C@H](CCCn1cc([*:3])nn1)N[*:1])[*:2]; PyrS2(5) = (S)-3-amino-1-((pent-4-en-1-yloxy)carbonyl)pyrrolidine-3-carboxylic acid, C=CCCCOC(=O)N1CC[C@@](N[*:1])(C(=O)[*:2])C1; B5″ = 2-amino-2-(pent-4-en-1-yl)hept-6-enoic acid (bis-olefin stapling residue), C=CCCCC(CCCC=C)(N[*:1])C(=O)[*:2]; B5(5) = 2-amino-2-(pent-4-en-1-yl)hept-6-enoic acid (two olefin arms), C=CCCCC(CCCC=C)(N[*:1])C(=O)[*:2]; B5(3) = 2-amino-2-(pent-4-en-1-yl)hept-6-enoic acid, two olefin arms, C=CCCCC(CCCC=C)(N[*:1])C(=O)[*:2]; TriAzLys″ = azidolysine residue closed into triazole staple, O=C([C@H](CCCCn1cc([*:3])nn1)N[*:1])[*:2]; Me2Mal = 2-carboxy-2-methylpropanoyl group on the Lys side chain, CC(C)(C(=O)O)C(=O)*; 2F3MeF″ = aromatic residue, Cc1cccc(C[C@H](N[*:1])C(=O)[*:2])c1F; Phe(3-COOH) = N[C@@H](Cc1cccc(C(=O)O)c1)C(=O)O; 2F3MeF = Cc1cccc(C[C@H](N[*:1])C(=O)[*:2])c1F; Abu(4-yl) = O=C([C@H](CC[*:3])N[*:1])[*:2]; Phe(2-Cl) = N[C@@H](Cc1ccccc1Cl)C(=O)O; Bta = N[C@@H](Cc1csc2ccccc12)C(=O)O; Lys(iPr) = CC(C)NCCCC[C@H](N)C(=O)O; αAllylPro = C=CC[C@@]1(C(=O)O)CCCN1; tBuAla = CC(C)(C)C[C@H](N)C(=O)O; 3Thi = N[C@@H](Cc1ccsc1)C(=O)O; Cha = N[C@@H](CC1CCCCC1)C(=O)O; Suc = O=C(CCC(=O)[*:2])[*:1]; hSer = N[C@@H](CCO)C(=O)O; 2F3MeF(4) = Phe analogue; BztA″ = aromatic residue; Nle = CCCC[C@H](N)C(=O)O; Orn = NCCC[C@H](N)C(=O)O; TfeGA = not defined here; AsnR = not defined here; GlnR = not defined here; sAla = not defined here; PL3 = not defined here; B5 = not defined here; Aib = CC(C)(N)C(=O)O

Sequence of beta-catenin (human) (B6V8E6 146-665 limits assumed): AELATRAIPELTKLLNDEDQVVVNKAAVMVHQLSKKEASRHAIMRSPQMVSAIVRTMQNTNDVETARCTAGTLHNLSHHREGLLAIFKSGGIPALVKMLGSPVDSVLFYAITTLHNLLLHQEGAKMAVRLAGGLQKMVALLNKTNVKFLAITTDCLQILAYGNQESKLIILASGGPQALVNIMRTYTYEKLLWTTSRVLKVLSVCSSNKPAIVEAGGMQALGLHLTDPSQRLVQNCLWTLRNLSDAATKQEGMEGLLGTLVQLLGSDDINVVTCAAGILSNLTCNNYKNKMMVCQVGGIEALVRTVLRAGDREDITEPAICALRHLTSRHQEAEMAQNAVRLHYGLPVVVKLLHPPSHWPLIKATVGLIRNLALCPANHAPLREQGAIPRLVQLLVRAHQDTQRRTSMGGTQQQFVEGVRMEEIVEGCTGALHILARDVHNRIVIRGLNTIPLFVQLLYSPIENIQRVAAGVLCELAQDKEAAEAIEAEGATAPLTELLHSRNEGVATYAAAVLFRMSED

B1: I-69 (peptide)
peptide: Ac-[αAllylPro]D[tBuAla][B5(3)]D[Phe(3-COOH)][Aib]AFK[PyrS2(3)][2F3MeF″][Bta][GlnR]A-NH2
modifications: bridge 10-14; not fully specified (bridges); printed as Ac-PL3-Asp-Npg-B5-Asp-3COOHF-Aib-Ala-Phe-Lys*3-PyrS2-2F3MeF-BztA-GlnR*3-Ala-NH2; reading uncertain
Molecule B1 came in with an IC50 of less than 50 nM.

B2: I-70 (peptide)
peptide: Ac-[αAllylPro]D[tBuAla][B5(3)]D[Phe(3-COOH)][Nle]AFK[PyrS2(3)][3Thi][Bta][GlnR]A-NH2
modifications: bridge 10-14; not fully specified (bridges); printed as Ac-PL3-Asp-Npg-B5-Asp-3COOHF-nLeu-Ala-Phe-Lys*3-PyrS2-3Thi-BztA-GlnR*3-Ala-NH2; reading uncertain
Consider B2, for which the IC50 was less than 50 nM.

B3: I-46 (peptide)
peptide: Ac-[αAllylPro]D[tBuAla][B5(5)]D[Phe(3-COOH)]KAFL[PyrS2(5)][3Thi][Bta]K-NH2
modifications: not fully specified (residues 6, 7, bridges); printed as Ac-PL3-Asp-Npg-B5-Asp-3COOHF-[succinate]-Lys-Ala-Phe-Leu-PyrS2-3Thi-BztA-Lys-NH2
The molecule B3 had a 50% inhibitory concentration (IC50) of less than 50 nM.

B4: I-20 (peptide)
peptide: Ac-[PL3]D[tBuAla][B5(4)]D[Phe(3-COOH)]AAF[TriAzLys″][PyrS2″][3Thi][Bta][sAla]-NH2
modifications: triazole 10-14; not fully specified (bridges); printed as Ac-PL3-Asp-Npg-B5-Asp-3COOHF-Ala-Ala-Phe-TriAzLys*3-PyrS2-3Thi-BztA-sAla*3-NH2; reading uncertain
B4: the IC50 was less than 50 nM.

B5: I-335 (peptide)
peptide: Ac-[αAllylPro]D[tBuAla][B5]D[Phe(3-COOH)][Aib]AF[TriAzLys(4)][PyrS2][3Thi][Bta][Abu(4-yl)]A-NH2
modifications: triazole 10-14; not fully specified (bridges); printed as Ac-PL3-Asp-Npg-B5-Asp-3COOHF-Aib-Ala-Phe-TriAzLys*3-PyrS2-3Thi-BztA-sAla*3-Ala-NH2; reading uncertain
In the case of B5, the IC50 was less than 50 nM.

B6: I-47 (peptide)
peptide: Ac-[αAllylPro]D[tBuAla][B5(5)]D[Phe(3-COOH)]KAFL[PyrS2(5)][3Thi][Bta]K-NH2
modifications: not fully specified (residues 6, 7, bridges); printed as Ac-PL3-Asp-Npg-B5-Asp-3COOHF-[Me2Mal]-Lys-Ala-Phe-Leu-PyrS2-3Thi-BztA-Lys-NH2
The molecule B6 came in with a half-maximal inhibitory concentration (IC50) of less than 50 nM.

B7: I-118 (peptide)
peptide: Ac-[αAllylPro]D[tBuAla][B5″][hSer][TfeGA]AAFK[PyrS2″][2F3MeF][Bta][GlnR]A-NH2
modifications: bridge 10-14; not fully specified (bridges); reading uncertain; also: Lys*3 and GlnR*3 marked *3
In turn, B7 showed an IC50 greater than 1000 nM.

B8: I-146 (peptide)
peptide: Ac-[αAllylPro][hSer][tBuAla][B5]D[Phe(3-COOH)][Nle]AFK[PyrS2″][2F3MeF″][BztA″][GlnR]LS-NH2
modifications: bridge 10-14; not fully specified (bridges); printed as Ac-PL3-Hse-Npg-B5-Asp-3COOHF-nLeu-Ala-Phe-Lys*3-PyrS2-2F3MeF-BztA-GlnR*3-Leu-Ser-NH2; reading uncertain; also: Lys10 and GlnR14 marked *3
For B8, the IC50 is greater than 1000 nM.

B9: I-67 (peptide)
peptide: Ac-[αAllylPro]D[tBuAla][B5]D[Phe(3-COOH)][Aib]AFK[PyrS2][3Thi][Bta][GlnR]A-NH2
modifications: staple 1-4, 4-11; lactam 10-14; not fully specified; printed as Ac-PL3-Asp-Npg-B5-Asp-3COOHF-Aib-Ala-Phe-Lys*3-PyrS2-3Thi-BztA-GlnR*3-Ala-NH2; reading uncertain
As for B9, the IC50 was less than 50 nM.

B10: I-74 (peptide)
peptide: XDQXDXKAFKXXXQA
modifications: not fully specified; Ac-PL3-Asp-GlnR**3-B5-Asp-3COOHF-Lys**3-Ala-Phe-Lys*3-PyrS2-3Thi-BztA-GlnR*3-Ala-NH2
With B10, the concentration for half-maximal inhibition (IC50) was less than 50 nM.

B11: I-18 (peptide)
peptide: Ac-[αAllylPro]D[tBuAla][B5″]DDAAF[TriAzLys][PyrS2″][3Thi][Bta][Abu(4-yl)]-NH2
modifications: triazole 10-14; also: PL3-B5 and PyrS2 links not placed
In turn, B11 returned an IC50 of less than 50 nM.

B12: I-48 (peptide)
peptide: Ac-[αAllylPro]D[tBuAla][B5(4)]D[Phe(3-COOH)]KAFL[PyrS2(6)][3Thi][Bta]K-NH2
modifications: not fully specified (residues 6, 7, bridges); printed as Ac-PL3-Asp-Npg-B5-Asp-3COOHF-[diphenate]-Lys-Ala-Phe-Leu-PyrS2-3Thi-BztA-Lys-NH2
Consider B12, for which the IC50 was less than 50 nM.

B13: I-78 (peptide)
peptide: XDQXDXKAFKXXXQA
modifications: not fully specified; Ac-PL3-Asp-GlnR**3-B5-Asp-3COOHF-Lys**3-Ala-Phe-Lys*3-PyrS2-3Thi-BztA-GlnR*3-Ala-NH2
For the molecule B13, the IC50 is less than 50 nM.

B14: I-51 (peptide)
peptide: Ac-[αAllylPro]D[tBuAla][B5(4)]D[Phe(3-COOH)]K(Suc)AFL[PyrS2(6)][Phe(2-Cl)][Bta]K-NH2
modifications: not fully specified (residue 6, bridges); printed as Ac-PL3-Asp-Npg-B5-Asp-3COOHF-[succinate]-Lys-Ala-Phe-Leu-PyrS2-2ClF-BztA-Lys-NH2
For B14, the IC50 was less than 50 nM.

B15: I-40 (peptide)
peptide: Ac-[αAllylPro]D[tBuAla][B5(5)]D[Phe(3-COOH)]AAF[AsnR][PyrS2(5)][3Thi][Bta][Orn]-NH2
modifications: bridge 10-14; reading uncertain; also: PL3/B5/PyrS2 staple links not placed, printed as Ac-PL3-Asp-Npg-B5-Asp-3COOHF-Ala-Ala-Phe-AsnR*3-PyrS2-3Thi-BztA-Orn*3-NH2
The molecule B15 returned an IC50 greater than 1000 nM.

B16: I-52 (peptide)
peptide: Ac-[αAllylPro]D[tBuAla][B5(3)]D[Phe(3-COOH)]K(Me2Mal)AFL[PyrS2(3)][Phe(2-Cl)][Bta]K-NH2
modifications: not fully specified (residue 6, bridges); printed as Ac-PL3-Asp-Npg-B5-Asp-3COOHF-[Me2Mal]Lys-Ala-Phe-Leu-PyrS2-2ClF-BztA-Lys-NH2
B16: the IC50 is less than 50 nM.

B17: I-77 (peptide)
peptide: Ac-[αAllylPro]D[tBuAla][B5(4)]D[Phe(3-COOH)]AAFK[PyrS2(6)][2F3MeF(4)][Bta][GlnR]A-NH2
modifications: staple 1-4 (inferred); bridge 10-14; not fully specified (residue 10, bridges); printed as Ac-PL3-Asp-Npg-B5-Asp-3COOHF-Ala-Ala-Phe-Lys*3-PyrS2-2F3MeF-BztA-GlnR*3-Ala-NH2; reading uncertain; also: -CH=CH- in each staple reduced to -CH2-CH2-
B17: the IC50 was less than 50 nM.

B18: I-22 (peptide)
peptide: Ac-[PL3]D[tBuAla][B5(4)]D[Phe(3-COOH)]AAF[TriAzLys″][PyrS2″][2F3MeF][Bta][sAla]-NH2
modifications: triazole 10-14; not fully specified (bridges); printed as Ac-PL3-Asp-Npg-B5-Asp-3COOHF-Ala-Ala-Phe-TriAzLys*3-PyrS2-2F3MeF-BztA-sAla*3-NH2; reading uncertain
B18 had an IC50 of less than 50 nM.

B19: I-150 (peptide)
peptide: Ac-[αAllylPro]N[Cha][B5″]DT[Lys(iPr)]AF[GlnR][PyrS2″]F[Bta]K-NH2
modifications: bridge 10-14; reading uncertain; also: PL3-B5 and PyrS2 links not placed, printed as Ac-PL3-Asn-Cha-B5-Asp-Thr-iPrLys-Ala-Phe-GlnR*3-PyrS2-Phe-BztA-Lys*3-NH2
On to B19, for which the concentration for half-maximal inhibition (IC50) was greater than 1000 nM.

B20: I-119 (peptide)
peptide: Ac-[αAllylPro]D[tBuAla][B5″][hSer][TfeGA]AAFK[PyrS2″][2F3MeF][Bta][GlnR]A-NH2
modifications: bridge 10-14; not fully specified (bridges); reading uncertain; also: Lys*3 and GlnR*3 marked *3
For B20, the IC50 was greater than 1000 nM.

B21: I-80 (peptide)
peptide: Ac-[αAllylPro]N[tBuAla][B5(4)]D[Phe(3-COOH)]AAFK[PyrS2(6)][3Thi][Bta][GlnR]A-NH2
modifications: staple 1-4 (inferred); bridge 10-14; not fully specified (residue 10, bridges); printed as Ac-PL3-Asn-Npg-B5-Asp-3COOHF-Ala-Ala-Phe-Lys*3-PyrS2-3Thi-BztA-GlnR*3-Ala-NH2; reading uncertain
Molecule B21 showed a half-maximal inhibitory concentration (IC50) of less than 50 nM.

B22: I-45 (peptide)
peptide: Ac-[αAllylPro]D[tBuAla][B5(5)]D[Phe(3-COOH)]KAFL[PyrS2(5)][3Thi][Bta]K-NH2
modifications: not fully specified (residue 6); printed as Ac-PL3-Asp-Npg-B5-Asp-3COOHF-[isophthalate]-Lys-Ala-Phe-Leu-PyrS2-3Thi-BztA-Lys-NH2; also: isophthalate unit next to Lys7, attachment not given here, PL3/B5/PyrS2 staple links not placed
B22 had an IC50 of less than 50 nM.

B23: I-145 (peptide)
peptide: Ac-[αAllylPro][hSer][tBuAla][B5]D[Phe(3-COOH)]AAFK[PyrS2(5)][2F3MeF″][BztA″][GlnR]LS-NH2
modifications: bridge 10-14; not fully specified (bridges); printed as Ac-PL3-Hse-Npg-B5-Asp-3COOHF-Ala-Ala-Phe-Lys*3-PyrS2-2F3MeF-BztA-GlnR*3-Leu-Ser-NH2; reading uncertain; also: Lys10 and GlnR14 marked *3
Consider B23, for which the IC50 was greater than 1000 nM.
